Measured values from article PMC4670963.

Experiments:
[1] = molecular target: Flag-tagged Sufu (UniProt Q9UMX1); assay: co-IP; NIH3T3 cells transfected with HA-Gli1 or HA-Gli2 and Flag-Sufu, without exogenous Hck; immunoprecipitated with anti-Flag; western blot with anti-HA or anti-Flag; bands quantified with ImageJ against the input
[2] = molecular target: Flag-tagged Sufu (UniProt Q9UMX1); assay: co-IP; As a2 but with co-expressed exogenous HA-Hck or kinase-inactive Hck-K269E; immunoprecipitated with anti-Flag; western blot with anti-HA, anti-Flag or 4G10

UniProt Q9UMX1, sequence (Q9UMX1 whole entry): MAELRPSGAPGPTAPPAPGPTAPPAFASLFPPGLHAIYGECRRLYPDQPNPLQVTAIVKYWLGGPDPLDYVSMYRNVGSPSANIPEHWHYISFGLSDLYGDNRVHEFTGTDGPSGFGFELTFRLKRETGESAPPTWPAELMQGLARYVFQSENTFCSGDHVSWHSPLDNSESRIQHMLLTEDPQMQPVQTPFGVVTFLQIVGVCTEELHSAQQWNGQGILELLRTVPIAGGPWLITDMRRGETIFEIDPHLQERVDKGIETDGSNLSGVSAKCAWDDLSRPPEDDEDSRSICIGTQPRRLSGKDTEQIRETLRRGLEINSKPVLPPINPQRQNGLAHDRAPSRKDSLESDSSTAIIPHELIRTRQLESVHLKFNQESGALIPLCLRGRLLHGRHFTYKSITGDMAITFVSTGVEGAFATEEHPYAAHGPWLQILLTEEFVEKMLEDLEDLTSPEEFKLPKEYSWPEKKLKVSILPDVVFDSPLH

percent of Gli1 co-immunoprecipitated with Sufu (against the input) [1]: 30%
percent of Gli1 co-precipitated with Sufu (against the input), with co-expressed HA-Hck [2]: 5%
Substance: HA-Gli1 (from UniProt P08151 1-1106) (natural protein)
